The source of these data is publication PMC6258710, “Architecture and subunit arrangement of the complete Saccharomyces cerevisiae COMPASS complex” (Scientific Reports, 2018).

The chains are these.
B3: Cps60/Bre2 (natural protein, S. cerevisiae, UniProt P43132 1-505, looked up)
chain: MKLGIIPYQEGTDIVYKNALQGQQEGKRPNLPQMEATHQIKSSVQGTSYEFVRTEDIPLNRRHFVYRPCSANPFFTILGYGCTEYPFDHSGMSVMDRSEGLSISRDGNDLVSVPDQYGWRTARSDVCIKEGMTYWEVEVIRGGNKKFADGVNNKENADDSVDEVQSGIYEKMHKQVNDTPHLRFGVCRREASLEAPVGFDVYGYGIRDISLESIHEGKLNCVLENGSPLKEGDKIGFLLSLPSIHTQIKQAKEFTKRRIFALNSHMDTMNEPWREDAENGPSRKKLKQETTNKEFQRALLEDIEYNDVVRDQIAIRYKNQLFFEATDYVKTTKPEYYSSDKRERQDYYQLEDSYLAIFQNGKYLGKAFENLKPLLPPFSELQYNEKFYLGYWQHGEARDESNDKNTTSAKKKKQQQKKKKGLILRNKYVNNNKLGYYPTISCFNGGTARIISEEDKLEYLDQIRSAYCVDGNSKVNTLDTLYKEQIAEDIVWDIIDELEQIALQQ
notes: Cps60/Bre2, subunit of COMPASS, S. cerevisiae, full length; source: S. cerevisiae (strain yCOS2), overexpressed from the GAL1-10 promoter; in lysate for the TAP purification; then co-purified with TAP-Set1 as the COMPASS complex
B4: Cps50/Swd1 (natural protein, S. cerevisiae, UniProt P39706 1-426, looked up)
chain: MNILLQDPFAVLKEHPEKLTHTIENPLRTECLQFSPCGDYLALGCANGALVIYDMDTFRPICVPGNMLGAHVRPITSIAWSPDGRLLLTSSRDWSIKLWDLSKPSKPLKEIRFDSPIWGCQWLDAKRRLCVATIFEESDAYVIDFSNDPVASLLSKSDEKQLSSTPDHGYVLVCTVHTKHPNIIIVGTSKGWLDFYKFHSLYQTECIHSLKITSSNIKHLIVSQNGERLAINCSDRTIRQYEISIDDENSAVELTLEHKYQDVINKLQWNCILFSNNTAEYLVASTHGSSAHELYIWETTSGTLVRVLEGAEEELIDINWDFYSMSIVSNGFESGNVYVWSVVIPPKWSALAPDFEEVEENVDYLEKEDEFDEVDEAEQQQGLEQEEEIAIDLRTREQYDVRGNNLLVERFTIPTDYTRIIKMQSS
notes: Cps50/Swd1, WD40 repeat subunit of COMPASS, S. cerevisiae, full length; source: S. cerevisiae (strain yCOS2), overexpressed from the GAL1-10 promoter; in lysate for the TAP purification; then co-purified with TAP-Set1 as the COMPASS complex

Assay [1] deals with T1, Set1 (S. cerevisiae, UniProt P38827 1-1080).
T1 construct: Set1, histone H3K4 methyltransferase subunit of COMPASS, S. cerevisiae, full length; also called TAP-Set1; TAP-SET1; source: S. cerevisiae (strain yCOS2), overexpressed from the GAL1-10 promoter with the six Cps subunits; in lysate for the TAP purification; then purified as the COMPASS complex (IgG-Sepharose, TEV, calmodulin-Sepharose, glycerol gradient or GraFix); not shown: TAP, N-terminal, kept
T1 sequence (looked up): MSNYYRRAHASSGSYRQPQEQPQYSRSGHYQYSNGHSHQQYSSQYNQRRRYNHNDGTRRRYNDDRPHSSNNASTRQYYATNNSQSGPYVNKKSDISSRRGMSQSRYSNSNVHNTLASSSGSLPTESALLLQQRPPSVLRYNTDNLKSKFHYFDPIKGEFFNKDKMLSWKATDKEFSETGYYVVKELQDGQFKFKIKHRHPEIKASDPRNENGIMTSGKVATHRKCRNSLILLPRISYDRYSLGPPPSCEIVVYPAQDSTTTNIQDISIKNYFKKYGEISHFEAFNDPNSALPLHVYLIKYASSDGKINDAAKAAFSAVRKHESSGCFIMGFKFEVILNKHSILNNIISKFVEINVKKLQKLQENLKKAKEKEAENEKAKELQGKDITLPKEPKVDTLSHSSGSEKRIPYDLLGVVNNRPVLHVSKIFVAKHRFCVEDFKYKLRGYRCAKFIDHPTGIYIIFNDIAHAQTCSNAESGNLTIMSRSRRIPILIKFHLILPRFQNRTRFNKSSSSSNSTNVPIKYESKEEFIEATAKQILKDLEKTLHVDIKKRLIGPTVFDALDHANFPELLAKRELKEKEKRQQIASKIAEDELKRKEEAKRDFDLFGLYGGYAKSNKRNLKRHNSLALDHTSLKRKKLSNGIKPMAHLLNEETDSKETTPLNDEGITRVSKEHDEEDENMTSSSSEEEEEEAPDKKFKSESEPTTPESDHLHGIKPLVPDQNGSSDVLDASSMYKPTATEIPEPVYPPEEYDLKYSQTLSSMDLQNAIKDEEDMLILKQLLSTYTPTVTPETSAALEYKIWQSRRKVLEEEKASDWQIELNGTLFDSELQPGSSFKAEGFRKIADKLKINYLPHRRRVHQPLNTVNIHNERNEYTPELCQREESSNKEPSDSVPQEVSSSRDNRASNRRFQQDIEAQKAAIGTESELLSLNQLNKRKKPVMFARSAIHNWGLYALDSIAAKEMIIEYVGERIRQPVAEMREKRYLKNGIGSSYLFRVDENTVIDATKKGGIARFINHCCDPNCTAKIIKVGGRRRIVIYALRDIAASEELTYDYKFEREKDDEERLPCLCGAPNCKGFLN
In words: cross-linking; purified COMPASS from the glycerol gradient cross-linked with 1 mM disuccinimidyl suberate (DSS), on ice 2 h; trypsin digest, LC-MS/MS, pLink and xlinkx (XL-MS). Conditions: both partners purified.

The assay “Cps60/Bre2” concerns the target B3. The description is as above. Conditions: both partners purified.
Assay [2] concerns the target T1, Set1. In words: tandem affinity purification (TAP), SDS-PAGE; yeast lysate; TAP-Set1 held on IgG-Sepharose, washed with 350 mM NaCl, TEV elution, calmodulin-Sepharose, EGTA elution, then glycerol gradient centrifugation; subunits seen by SDS-PAGE. Conditions: partners not purified.
Assay [3] addresses T1, Set1. In words: cryo-EM structure; complete COMPASS after GraFix (glutaraldehyde), map at 10.0 Å; subunits placed by DID, PA-NZ-1 Fab and eGFP labelling and by docking of homology models. As to conditions: both partners purified.
The target of the assay “Cps50/Swd1” is B4. The description is as above. As to conditions: both partners purified.

B1: Cps25/Sdc1 (natural protein, S. cerevisiae, UniProt Q03323 1-175, looked up)
chain: MNESENSPQHNEVTVPMVEDTSSNADIPMEQIQREDNKNYDKHDNECFDMNGNHNNNSDNLQFDSVPSSATKDLKNIKSVTNQNVKIEESSSTNSVIEESSEPKISKLENVNLAATVGGSQTRKYLNTNVTPHLLAGMRLIAVQQPEDPLRVLGEYLIEQSNILKSGEKESNASK
notes: Cps25/Sdc1, subunit of COMPASS, S. cerevisiae, full length; source: S. cerevisiae (strain yCOS2), overexpressed from the GAL1-10 promoter; in lysate for the TAP purification; then co-purified with TAP-Set1 as the COMPASS complex
Consider B1, for which the binding result in the assay with Set1 [1] and with Cps60/Bre2 was “binds” each time.

B2: Cps35/Swd2 (natural protein, S. cerevisiae, UniProt P36104 1-329, looked up)
chain: MTTVSINKPNLLKFKHVKSFQPQEKDCGPVTSLNFDDNGQFLLTSSSNDTMQLYSATNCKFLDTIASKKYGCHSAIFTHAQNECIYSSTMKNFDIKYLNLETNQYLRYFSGHGALVNDLKMNPVNDTFLSSSYDESVRLWDLKISKPQVIIPSLVPNCIAYDPSGLVFALGNPENFEIGLYNLKKIQEGPFLIIKINDATFSQWNKLEFSNNGKYLLVGSSIGKHLIFDAFTGQQLFELIGTRAFPMREFLDSGSACFTPDGEFVLGTDYDGRIAIWNHSDSISNKVLRPQGFIPCVSHETCPRSIAFNPKYSMFVTADETVDFYVYDE
notes: Cps35/Swd2, WD40 repeat subunit of COMPASS, S. cerevisiae, full length; source: S. cerevisiae (strain yCOS2), overexpressed from the GAL1-10 promoter; in lysate for the TAP purification; then co-purified with TAP-Set1 as the COMPASS complex
With B2, the binding result in the assay with Set1 [1] is “binds”.
B3: the binding result with Set1 [2] is given as “binds”.
In the case of B4, the binding result in the assay with Set1 [3] is “binds”.

B5: Cps30/Swd3 (natural protein, S. cerevisiae, UniProt P38123 1-315, looked up)
chain: MFQFVTPVGTQNGLKATCAKISPDGQFLAITQGLNILIYDINRRTVSQTLVTSHARPFSELCWSPDGQCIATASDDFSVEIIHLSYGLLHTFIGHTAPVISLTFNRKGNLLFTSSMDESIKIWDTLNGSLMKTISAHSEAVVSVDVPMNDSSILSSGSYDGLIRIFDAETGHCLKTLTYDKDWKRENGVVPISQVKFSENARYLLVKSLDGVVKIWDCIGGCVVRTFQVQPLEKGVLHHSCGMDFLNPEDGSTPLVISGYENGDIYCWNSDTKSLLQLLDGSLYHHSSPVMSIHCFGNIMCSLALNGDCCLWRWV
notes: Cps30/Swd3, WD40 repeat subunit of COMPASS, S. cerevisiae, full length; source: S. cerevisiae (strain yCOS2), overexpressed from the GAL1-10 promoter; in lysate for the TAP purification; then co-purified with TAP-Set1 as the COMPASS complex
In the case of B5, the binding result with Set1 [3] and with Cps50/Swd1 was “binds” throughout.

B6: Cps40/Spp1 (natural protein, S. cerevisiae, UniProt Q03012 1-353, looked up)
chain: MSLPQWCPPHSTLKRNPTTGEDVYCICKRPDYGELMVGCDGCDDWFHFTCLHIPEQFKDLVFSFYCPYCQAGITGKNKDAIINGEGSLPKTLWKRKCRISDCYKPCLQDSKYCSEEHGREFVNDIWSRLKTDEDRAVVKKMVEQTGHIDKFKKFGQLDFIDNNIVVKTDDEKEIFDQIVVRDMTLKTLEDDLQEVQEISLPLFKKKLELLEVYLGWLDNVYTEMRKLDDDAASHVECGKEDSKGTKRKKKKNSSRSRARKNICGYCSTYERIPCSVEEFVRDFGSNEEATKIHEVCTKWKCNRHLDWVSTNQEQYLQQIDSLESMQERLQHLIQARKKQLNIQYYEEILRRGL
notes: Cps40/Spp1, subunit of COMPASS, S. cerevisiae, full length; source: S. cerevisiae (strain yCOS2), overexpressed from the GAL1-10 promoter; in lysate for the TAP purification; then co-purified with TAP-Set1 as the COMPASS complex
Regarding B6, the binding result with Set1 [1] is listed as “binds”.
